From the supplement of paper PMC9112550, “Optimization of the antimicrobial peptide Bac7 by deep mutational scanning” (BMC Biology, 2022)

Test system: Escherichia coli TOP10
Test: shrunken log2 fold change of peptide-encoding DNA abundance (4.5 h post-induction vs induction); higher = less antimicrobial activity (less host growth inhibition)
Conditions: time post-induction: 4.5 h; library: site-saturation at positions 5, 18, 19, 20
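Further: peptides expressed intracellularly from a pBAD plasmid library in pooled LB shake-flask culture, induced with 0.3% L-arabinose, DNA abundance read by NGS, three biological replicates, DESeq2 with apeglm shrinkage.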

Sequence: RRIRERPPRLPRPRPRPDGLPRP
- shrunken log2 fold change: 0.0424

Sequence: RRIRMRPPRLPRPRPRPDLCPRP
- shrunken log2 fold change: 0.196

Sequence: RRIRARPPRLPRPRPRPEYVPRP
- shrunken log2 fold change: 0.0744

Sequence: RRIRDRPPRLPRPRPRPHMFPRP
- shrunken log2 fold change: -0.0389

Sequence: RRIRQRPPRLPRPRPRPELFPRP
- shrunken log2 fold change: -0.0927

Sequence: RRIRHRPPRLPRPRPRPERCPRP
- shrunken log2 fold change: -0.078

Sequence: RRIRQRPPRLPRPRPRPCRPPRP
- shrunken log2 fold change: -0.184

Sequence: RRIRPRPPRLPRPRPRPKMIPRP
- shrunken log2 fold change: -0.0706

Sequence: RRIRRRPPRLPRPRPRPTNDPRP
- shrunken log2 fold change: 0.263

Sequence: RRIRWRPPRLPRPRPRPEIEPRP
- shrunken log2 fold change: 0.193

Sequence: RRIRARPPRLPRPRPRPVRYPRP
- shrunken log2 fold change: 2.39

Sequence: RRIRVRPPRLPRPRPRPCATPRP
- shrunken log2 fold change: 0.0911

Sequence: RRIRWRPPRLPRPRPRPAVQPRP
- shrunken log2 fold change: 0.792

Sequence: RRIRSRPPRLPRPRPRPPVCPRP
- shrunken log2 fold change: 0.311

Sequence: RRIRNRPPRLPRPRPRPRYQPRP
- shrunken log2 fold change: -0.19

Sequence: RRIRLRPPRLPRPRPRPFLTPRP
- shrunken log2 fold change: -0.434

Sequence: RRIRCRPPRLPRPRPRPRVLPRP
- shrunken log2 fold change: 3.12

Sequence: RRIRSRPPRLPRPRPRPNQVPRP
- shrunken log2 fold change: -0.0256

Sequence: RRIRSRPPRLPRPRPRPVIMPRP
- shrunken log2 fold change: -0.36

Sequence: RRIRCRPPRLPRPRPRPTQMPRP
- shrunken log2 fold change: 0.565

Sequence: RRIRRRPPRLPRPRPRPDPMPRP
- shrunken log2 fold change: 0.326

Sequence: RRIRWRPPRLPRPRPRPIWTPRP
- shrunken log2 fold change: 0.107

Sequence: RRIRARPPRLPRPRPRPESLPRP
- shrunken log2 fold change: 0.938

Sequence: RRIRYRPPRLPRPRPRPNEDPRP
- shrunken log2 fold change: -0.246

Sequence: RRIRHRPPRLPRPRPRPHYTPRP
- shrunken log2 fold change: -0.903

Sequence: RRIRARPPRLPRPRPRPPHNPRP
- shrunken log2 fold change: 0.757

Sequence: RRIRWRPPRLPRPRPRPTDEPRP
- shrunken log2 fold change: 0.582

Sequence: RRIRYRPPRLPRPRPRPFHWPRP
- shrunken log2 fold change: 0.0011

Sequence: RRIRSRPPRLPRPRPRPPNVPRP
- shrunken log2 fold change: 0.0837

Sequence: RRIRARPPRLPRPRPRPGQHPRP
- shrunken log2 fold change: -0.0452

Sequence: RRIRFRPPRLPRPRPRPADFPRP
- shrunken log2 fold change: -0.09

Sequence: RRIRWRPPRLPRPRPRPPFPPRP
- shrunken log2 fold change: 0.37

Sequence: RRIRPRPPRLPRPRPRPWMMPRP
- shrunken log2 fold change: -0.03

Sequence: RRIRCRPPRLPRPRPRPKMQPRP
- shrunken log2 fold change: 0.103

Sequence: RRIRNRPPRLPRPRPRPKWYPRP
- shrunken log2 fold change: -0.517

Sequence: RRIRFRPPRLPRPRPRPEHVPRP
- shrunken log2 fold change: -0.0205

Sequence: RRIRHRPPRLPRPRPRPQAPPRP
- shrunken log2 fold change: -0.0401

Sequence: RRIRGRPPRLPRPRPRPKQVPRP
- shrunken log2 fold change: 0.541

Sequence: RRIRKRPPRLPRPRPRPSKEPRP
- shrunken log2 fold change: 0.0111

Sequence: RRIRCRPPRLPRPRPRPFFGPRP
- shrunken log2 fold change: 0.0829

Sequence: RRIRSRPPRLPRPRPRPPSDPRP
- shrunken log2 fold change: 0.385

Sequence: RRIRYRPPRLPRPRPRPWYCPRP
- shrunken log2 fold change: -1.12

Sequence: RRIRRRPPRLPRPRPRPHDPPRP
- shrunken log2 fold change: -0.0379

Sequence: RRIRGRPPRLPRPRPRPQMHPRP
- shrunken log2 fold change: 0.989

Sequence: RRIRIRPPRLPRPRPRPVQMPRP
- shrunken log2 fold change: -0.675

Sequence: RRIRPRPPRLPRPRPRPSDWPRP
- shrunken log2 fold change: 0.248

Sequence: RRIRFRPPRLPRPRPRPFHPPRP
- shrunken log2 fold change: 0.039

Sequence: RRIRSRPPRLPRPRPRPCVGPRP
- shrunken log2 fold change: -0.0336

Sequence: RRIRKRPPRLPRPRPRPIYWPRP
- shrunken log2 fold change: 0.165

Sequence: RRIRIRPPRLPRPRPRPNIRPRP
- shrunken log2 fold change: -1.14

Sequence: RRIRRRPPRLPRPRPRPFMNPRP
- shrunken log2 fold change: 0.0829

Sequence: RRIRQRPPRLPRPRPRPWNGPRP
- shrunken log2 fold change: -0.0018

Sequence: RRIRCRPPRLPRPRPRPLACPRP
- shrunken log2 fold change: -0.236

Sequence: RRIRCRPPRLPRPRPRPSSMPRP
- shrunken log2 fold change: -0.859

Sequence: RRIRTRPPRLPRPRPRPGGGPRP
- shrunken log2 fold change: 0.759

Sequence: RRIRIRPPRLPRPRPRPNRGPRP
- shrunken log2 fold change: -0.203

Sequence: RRIRRRPPRLPRPRPRPKFTPRP
- shrunken log2 fold change: -0.176

Sequence: RRIRYRPPRLPRPRPRPTNIPRP
- shrunken log2 fold change: -0.841

Sequence: RRIRHRPPRLPRPRPRPWCPPRP
- shrunken log2 fold change: -0.402

Sequence: RRIRFRPPRLPRPRPRPFKWPRP
- shrunken log2 fold change: -0.269

Sequence: RRIRHRPPRLPRPRPRPLNHPRP
- shrunken log2 fold change: -0.785

Sequence: RRIRYRPPRLPRPRPRPWPPPRP
- shrunken log2 fold change: 0.194

Sequence: RRIRVRPPRLPRPRPRPNTEPRP
- shrunken log2 fold change: -0.665

Sequence: RRIRPRPPRLPRPRPRPQDAPRP
- shrunken log2 fold change: 0.355

Sequence: RRIRCRPPRLPRPRPRPHPWPRP
- shrunken log2 fold change: -0.158

Sequence: RRIRTRPPRLPRPRPRPRVTPRP
- shrunken log2 fold change: -0.163

Sequence: RRIRHRPPRLPRPRPRPPDRPRP
- shrunken log2 fold change: 0.385

Sequence: RRIRKRPPRLPRPRPRPQDPPRP
- shrunken log2 fold change: 1.55

Sequence: RRIRVRPPRLPRPRPRPLGEPRP
- shrunken log2 fold change: -0.162

Sequence: RRIRGRPPRLPRPRPRPWFLPRP
- shrunken log2 fold change: -0.149

Sequence: RRIRPRPPRLPRPRPRPMVEPRP
- shrunken log2 fold change: -0.112

Sequence: RRIRNRPPRLPRPRPRPIYAPRP
- shrunken log2 fold change: -0.71

Sequence: RRIRGRPPRLPRPRPRPRTSPRP
- shrunken log2 fold change: 0.763

Sequence: RRIRYRPPRLPRPRPRPPFLPRP
- shrunken log2 fold change: -0.178

Sequence: RRIRNRPPRLPRPRPRPNVRPRP
- shrunken log2 fold change: -0.243

Sequence: RRIRLRPPRLPRPRPRPGCMPRP
- shrunken log2 fold change: 0.646

Sequence: RRIRYRPPRLPRPRPRPRHWPRP
- shrunken log2 fold change: 0.272

Sequence: RRIRHRPPRLPRPRPRPHMMPRP
- shrunken log2 fold change: -0.321

Sequence: RRIRNRPPRLPRPRPRPDRIPRP
- shrunken log2 fold change: -0.0387

Sequence: RRIRGRPPRLPRPRPRPAAWPRP
- shrunken log2 fold change: 0.936

Sequence: RRIRGRPPRLPRPRPRPSHVPRP
- shrunken log2 fold change: -0.141

Sequence: RRIRTRPPRLPRPRPRPFMSPRP
- shrunken log2 fold change: 0.0219

Sequence: RRIRKRPPRLPRPRPRPNSQPRP
- shrunken log2 fold change: 0.27

Sequence: RRIRSRPPRLPRPRPRPEYPPRP
- shrunken log2 fold change: -0.128

Sequence: RRIRARPPRLPRPRPRPRHNPRP
- shrunken log2 fold change: -0.0548

Sequence: RRIRTRPPRLPRPRPRPMLSPRP
- shrunken log2 fold change: -0.41

Sequence: RRIRMRPPRLPRPRPRPKSNPRP
- shrunken log2 fold change: 0.815

Sequence: RRIRQRPPRLPRPRPRPLSKPRP
- shrunken log2 fold change: -0.194

Sequence: RRIRKRPPRLPRPRPRPMKGPRP
- shrunken log2 fold change: -0.156

Sequence: RRIRLRPPRLPRPRPRPCCKPRP
- shrunken log2 fold change: -0.102

Sequence: RRIRMRPPRLPRPRPRPFFMPRP
- shrunken log2 fold change: -0.121

Sequence: RRIRCRPPRLPRPRPRPVKKPRP
- shrunken log2 fold change: 0.0604

Sequence: RRIRGRPPRLPRPRPRPTRYPRP
- shrunken log2 fold change: 0.357

Sequence: RRIRARPPRLPRPRPRPCLIPRP
- shrunken log2 fold change: -0.191

Sequence: RRIRARPPRLPRPRPRPHNAPRP
- shrunken log2 fold change: -0.0368

Sequence: RRIRWRPPRLPRPRPRPITKPRP
- shrunken log2 fold change: 0.258

Sequence: RRIRFRPPRLPRPRPRPYHKPRP
- shrunken log2 fold change: -0.6

Sequence: RRIRFRPPRLPRPRPRPFEQPRP
- shrunken log2 fold change: -0.311

Sequence: RRIRERPPRLPRPRPRPLPTPRP
- shrunken log2 fold change: -0.0242

Sequence: RRIRRRPPRLPRPRPRPNAMPRP
- shrunken log2 fold change: 0.258

Sequence: RRIRLRPPRLPRPRPRPSIWPRP
- shrunken log2 fold change: -0.548

Sequence: RRIRVRPPRLPRPRPRPGKRPRP
- shrunken log2 fold change: -0.00991

Sequence: RRIRMRPPRLPRPRPRPWSQPRP
- shrunken log2 fold change: -0.189

Sequence: RRIRGRPPRLPRPRPRPLFMPRP
- shrunken log2 fold change: 0.223

Sequence: RRIRLRPPRLPRPRPRPHHKPRP
- shrunken log2 fold change: -0.644

Sequence: RRIRDRPPRLPRPRPRPYLDPRP
- shrunken log2 fold change: -0.0026

Sequence: RRIRGRPPRLPRPRPRPIMRPRP
- shrunken log2 fold change: 0.818

Sequence: RRIRHRPPRLPRPRPRPSYGPRP
- shrunken log2 fold change: -0.34

Sequence: RRIRDRPPRLPRPRPRPHQCPRP
- shrunken log2 fold change: -0.0903

Sequence: RRIRNRPPRLPRPRPRPNAQPRP
- shrunken log2 fold change: -0.119

Sequence: RRIRQRPPRLPRPRPRPLVHPRP
- shrunken log2 fold change: -0.203

Sequence: RRIRCRPPRLPRPRPRPQILPRP
- shrunken log2 fold change: -0.354

Sequence: RRIRQRPPRLPRPRPRPDNSPRP
- shrunken log2 fold change: -0.0422

Sequence: RRIRARPPRLPRPRPRPGLNPRP
- shrunken log2 fold change: 0.196

Sequence: RRIRGRPPRLPRPRPRPTYSPRP
- shrunken log2 fold change: -0.0883

Sequence: RRIRWRPPRLPRPRPRPSMLPRP
- shrunken log2 fold change: -0.369

Sequence: RRIRWRPPRLPRPRPRPMYWPRP
- shrunken log2 fold change: 0.0085

Sequence: RRIRFRPPRLPRPRPRPIDVPRP
- shrunken log2 fold change: -0.146

Sequence: RRIRARPPRLPRPRPRPHIWPRP
- shrunken log2 fold change: -0.187

Sequence: RRIRIRPPRLPRPRPRPMVMPRP
- shrunken log2 fold change: -0.138

Sequence: RRIRSRPPRLPRPRPRPLDIPRP
- shrunken log2 fold change: 0.00915

Sequence: RRIRVRPPRLPRPRPRPRVWPRP
- shrunken log2 fold change: 0.736

Sequence: RRIRCRPPRLPRPRPRPAKMPRP
- shrunken log2 fold change: 0.104

Sequence: RRIRKRPPRLPRPRPRPSCQPRP
- shrunken log2 fold change: 0.176

Sequence: RRIRYRPPRLPRPRPRPMACPRP
- shrunken log2 fold change: -0.000921

Sequence: RRIRFRPPRLPRPRPRPCCHPRP
- shrunken log2 fold change: -0.415

Sequence: RRIRSRPPRLPRPRPRPEQAPRP
- shrunken log2 fold change: 0.289

Sequence: RRIRIRPPRLPRPRPRPWSVPRP
- shrunken log2 fold change: -0.541

Sequence: RRIRIRPPRLPRPRPRPQKFPRP
- shrunken log2 fold change: -0.0902

Sequence: RRIRNRPPRLPRPRPRPMWNPRP
- shrunken log2 fold change: -0.294

Sequence: RRIRSRPPRLPRPRPRPNARPRP
- shrunken log2 fold change: -0.119

Sequence: RRIRCRPPRLPRPRPRPHRYPRP
- shrunken log2 fold change: -0.114

Sequence: RRIRPRPPRLPRPRPRPHDEPRP
- shrunken log2 fold change: -0.0869

Sequence: RRIRCRPPRLPRPRPRPYPKPRP
- shrunken log2 fold change: 0.0488

Sequence: RRIRNRPPRLPRPRPRPMECPRP
- shrunken log2 fold change: -0.0276

Sequence: RRIRIRPPRLPRPRPRPWHAPRP
- shrunken log2 fold change: -0.0572

Sequence: RRIRRRPPRLPRPRPRPGEAPRP
- shrunken log2 fold change: 0.752

Sequence: RRIRCRPPRLPRPRPRPIERPRP
- shrunken log2 fold change: 0.0355

Sequence: RRIRRRPPRLPRPRPRPSFTPRP
- shrunken log2 fold change: 0.0475

Sequence: RRIRKRPPRLPRPRPRPAMQPRP
- shrunken log2 fold change: 0.115

Sequence: RRIRERPPRLPRPRPRPDAAPRP
- shrunken log2 fold change: 0.635

Sequence: RRIRDRPPRLPRPRPRPNISPRP
- shrunken log2 fold change: -0.266

Sequence: RRIRPRPPRLPRPRPRPNLNPRP
- shrunken log2 fold change: -0.369

Sequence: RRIRMRPPRLPRPRPRPLYFPRP
- shrunken log2 fold change: -0.302

Sequence: RRIRPRPPRLPRPRPRPYQCPRP
- shrunken log2 fold change: -0.0702

Sequence: RRIRSRPPRLPRPRPRPRCWPRP
- shrunken log2 fold change: 0.329

Sequence: RRIRSRPPRLPRPRPRPFGNPRP
- shrunken log2 fold change: -0.00151

Sequence: RRIRCRPPRLPRPRPRPITGPRP
- shrunken log2 fold change: -0.213

Sequence: RRIRMRPPRLPRPRPRPDKCPRP
- shrunken log2 fold change: -0.0194

Sequence: RRIRTRPPRLPRPRPRPHPFPRP
- shrunken log2 fold change: -0.00172
